Test: soluble on expression in E. coli; label from the status in PepcDB or PDB records

Sequence	soluble on expression in E. coli
MGSSHHHHHHSSGLVPRGSTSEVIEDEKQFYSKAKTYWKQIPPTVDGMLGGYGHISSIDINSSRKFLQRFLREGPNKTGTSCALDCGAGIGRITKRLLLPLFREVDMVDITEDFLVQAKTYLGEEGKRVRNYFCCGLQDFTPEPDSYDVIWIQWVIGHLTDQHLAEFLRRCKGSLRPNGIIVIKDNMAQEGVILDDVDSSVCRDLDVVRRIICSAGLSLLAEERQENLPDEIYHVYSFALR	soluble
MVYLLDLSGVYCEPVEPRLLRLLAEESGEPVFYLSEAFYALLPRLKAEGAQALEALFPGASRLYPKAFRPRGLAFPEPFHLVSDLPPPEGVLAYHAPDKLEALALALEALGLAPGEAVYWDDNPLWVERARGLGVRAELFLP	soluble
MGSDKIHHHHHHMDALEIHRFLKGKIRTALPVEKVDRETLSLLYTPGVADVARACAEDPEKTYVYTSRWNTVAVVSDGSAVLGLGNIGPYGALPVMEGKAFLFKAFADIDAFPICLSESEEEKIISIVKSLEPSFGGINLEDIGAPKCFRILQRLSEEMNIPVFHDDQQGTAVVVSAAFLNALKLTEKKIEEVKVVVNGIGAAGYNIVKFLLDLGVKNVVAVDRKGILNENDPETCLNEYHLEIARITNPERLSGDLETALEGADFFIGVSRGNILKPEWIKKMSRKPVIFALANPVPEIDPELAREAGAFIVATGRSDHPNQVNNLLAFPGIMKGAVEKRSKITKNMLLSAVEAIARSCEPEPERIIPEAFDMKVHLNVYTAVKGSA	not soluble
MGIMEAERKTTGWAARDPSGILSPYTYTLRETGPEDVNIRIICCGICHTDLHQTKNDLGMSNYPMVPGHEVVGEVVEVGSDVSKFTVGDIVGVGCLVGCCGGCSPCERDLEQYCPKKIWSYNDVYINGQPTQGGFAKATVVHQKFVVKIPEGMAVEQAAPLLCAGVTVYSPLSHFGLKQPGLRGGILGLGGVGHMGVKIAKAMGHHVTVISSSNKKREEALQDLGADDYVIGSDQAKMSELADSLDYVIDTVPVHHALEPYLSLLKLDGKLILMGVINNPLQFLTPLLMLGRKVITGSFIGSMKETEEMLEFCKEKGLSSIIEVVKMDYVNTAFERLEKNDVRYRFVVDVEGSNLDA	soluble
MSLEAILPVPEEKQVDWQKMETYAFVHFGLNTFNDREWGYGDSEPKTFNPTKLDCEQWVKTFVESGMKGVILTAKHHDGFCLWPTQLTEYCIRNTPYKDGKGDIVGELAAACKKYGIKFAVYLSPWDRHQANYGTPEYVDYFHKQLTELMTNYGEVFEVWFDGANGGDGWYGGAKDSRTIDRKTYYNYPRIYEILDKLQPQAIVFSDGGPGCRWVGNENGFAGATNWSFLRAGEVYPGYPKYRELQYGHADGNQWVPAECDVSIRPGWFYHPEEDDRVKTVEQLTDLYYRSVGHNATLLLNFPVDRDGLIHPIDSANAVNFHKNVQKQLAHNLLAGIRPKASDERGGQFSAKAATDESWDTYWATNDGVTAADIEFDFPKTEKVNRMMIQEYIPLGQRVKSFIVEYDKDGKWLPVKLNEETTTVGYKRLLRFETVSTDKLRIRFTDARACLCINNIEAYYAGETADTFTVEAKELKSYPFTLVGVPEEETKKCMDKDKNTTAFVEGDALVIDLGEERTITSFHYLPDQSEYNKGLISSYELSVGTEANAVNRIVAQGEFSNIKNNPILQSVYFTPVKARYLSLKPTKMVTEGETMGFAEIGIQEGHHHHHH	soluble
MLTLLMCGGKGTRLGRGEKPLFEVCGMKLIDHSLLQYKDFDVIAITSPHTPATESYLAEKGVEVYRAAGKGYIEDYSEACRELAINEPVIVASADIVYIRDIAFDIVDAYMKTIKPALTVVMEGEPVGVNIIDSLLINTWQEEEIYSIEKDSVVNVNTVADVERAERLWTTMRKERGWQRDLEHHHHHH	soluble
MIKMIDQYQAFTQSPIGKFVVKNLGLPSPVVLDRFESGQPVIKGAVLMGAAPSSSLTSGIAQVLSNIHADSYAGNNAEIQQAAAQVGLNLRAFNSGDKESKFKAVVFDASGIQNSEQLDELYKFFNPIVRQIESSGRVIVLGTSPESAKTVKQAIAQRALEGFIKSVGKEFKKGITAQVVYVDEGAVNNIESTLRFLLSPRSAYVSGQVIRVSKAEVVQVDWDKPLAGKTALVTGASRGIGEAIAHVLARDGAHVICLDVPQQQVDLDRVASEIGGSALGLDITAADAGEKIKAAAAKQGGLDIIVHNAGITRDKTLANMKSELWDLVININLSAAERINDYLLANDGLNTNGRIVCVSSISGIAGNLGQTNYAVSKAGVIGLVKFTAPILKNGITINAVAPGFIETQMTAAIPFAIREAGRRMNSMNQGGLPVDVAETISWFAATGSTGINGNVVRVCGQSLLGALEHHHHHH	soluble
SSFQTSLPRLPVPAVKDTVNRYLQSVRPLMKEEDFKRMTALAQDFAVGLGPRLQWYLKLKSWWATNYVSDWWEEYIYLRGRGPLMVNSNYYAMDLLYILPTHIQAARAGNAIHAILLYRRKLDREEIKPIRLLGSTIPLCSAQWERMFNTSRIPGEETDTIQHMRDSKHIVVYHRGRYFKVWLYHDGRLLKPREMEQQMQRILDNTSEPQPGEARLAALTAGDRVPWARCRQAYFGRGKNKQSLDAVEKAAFFVTLDETEEGYRSEDPDTSMDSYAKSLLHGRCYDRWFDKSFTFVVFKNGKMGLNAEHSWADAPIVAHLWEYVMSIDSLQLGYAEDGHCKGDINPNIPYPTRLQWDIPGECQEVIETSLNTANLLANDVDFHSFPFVAFGKGIIKKCRTSPDAFVQLALQLAHYKDMGKFCLTYEASMTRLFREGRTETVRSCTTESCDFVRAMVDPAQTVEQRLKLFKLASEKHQHMYRLAMTGSGIDRHLFCLYVVSKYLAVESPFLKEVLSEPWRLSTSQTPQQQVELFDLENNPEYVSSGGGFGPVADDGYGVSYILVGENLINFHISSKFSCPETDSHRFGRHLKEAMTDIITLFGLSSNSKK	soluble
HHHHHHAIAENLYFQSGRYRIRVATGAWLFSGSYNRVQLWLVGTRGEAELELQLRPARGEEEEFDHDVAEDLGLLQFVRLRKHHWLVDDAWFCDRITVQGPGACAEVAFPCYRWVQGEDILSLPEGTARLPGDNALDMFQKHREKELKDRQQIYCWATWKEGLPLTIAADRKDDLPPNMRFHEEKRLDFEWTLKAGALEMALKRVYTLLSSWNCLEDFDQIFWGQKSALAEKVRQCWQDDELFSYQFLNGANPMLLRRSTSLPSRLVLPSGMEELQAQLEKELQNGSLFEADFILLDGIPANVIRGEKQYLAAPLVMLKMEPNGKLQPMVIQIQPPSPSSPTPTLFLPSDPPLAWLLAKSWVRNSDFQLHEIQYHLLNTHLVAEVIAVATMRCLPGLHPIFKFLIPHIRYTMEINTRARTQLISDGGIFDKAVSTGGGGHVQLLRRAAAQLTYCSLCPPDDLADRGLLGLPGALYAHDALRLWEIIARYVEGIVHLFYQRDDIVKGDPELQAWCREITEVGLCQAQDRGFPVSFQSQSQLCHFLTMCVFTCTAQHAAINQGQLDWYAWVPNAPCTMRMPPPTTKEDVTMATVMGSLPDVRQACLQMAISWHLSRRQPDMVPLGHHKEKYFSGPKPKAVLNQFRTDLEKLEKEITARNEQLDWPYEYLKPSCIENSVTI	soluble
MAIYILEDQIIQAKALEVLLTNILHSRNIYNETIHLFSRSDELLQVAHQDAQLNIFFLDIQMNNHIQAGFEVAKEIRKTDSESLIVFISTHTELVLTSYKYMVSALQFIQKNVDFLDFQKEVETCVDAYIQQKENIKTKSEYIIINLKASSIKMDINDIYFFQTEYDHRVSMVGKNFKREFYGTLSKIEQLHPDLIRVHQSIIINKKYASKLNYKTHLLTMRDGTEVPVSRRYYTQVKALFLT	not soluble
MLDEKASEEEIKAMFLMLSGGLKSQPGEDEKATAVAYLFSLDGLSRWAIKTATRDVMKGKAEGLSTTFMPASADLLLYCEKLEDDIRTTVKGIFTSLDRPEIKPKGEPISAEKWDKLMQMLEKPKIGLNPFQ	not soluble
GMSSKEEILSILEAFASTERMGSFFLDNATADFLFIRPSGNPLDAKGFENMWSSGDLVLESAEITKVHKFELLGSNAAICVFTLGSKFTYKGTQNDDLPTVTSIFKKIDEKWKVAWMQRSSGQSDMTLWNE	soluble
MQEPQARIAALLRDADDILITTHANPDGDAIGSLGAMGHVLATLGKRFCLCNVSGVPSHLSWVPLPGQVYTSFDELPFQPRLAIVLDCGDEKRPGEALRAPLADLPSINIDHHQGNPLFGTVDNWVEPQRAATGEMVAEIALALGQPLAGALGECLYLALVSDTGSFSFGNTSARVLSLAAEIVGNGLDVAALTERHDNQWSFARMQLWGRLMQEMRLAFDGTVAISVIPDALIESCGARRADLEGWASQMRKVRGVRVSVMVRGNGPEGSKVSLRSTGSDDVRAVAARFGGGGHRNAAGVEMPLPPEEASRQVVAALGEQLGLDGDGASLYVLEHHHHHH	soluble
MGSDKIHHHHHHMPLTRERTDMSNLLSISDLSITFDNGPRVVDGLSFSIDKGQTLALVGESGSGKSVSALSILRLLDERHAAYPAGHILYKGEDLLQAQEKRLRQIRGRHISMIFQEPMTSLNPLHTVEKQISETLELHKGMRGPQARKRCLELLELVGIPAPETRLKSYPHQLSGGQKQRVMIAMALANEPDLLIADEPTTALDVTVQKQVLELLKSLQQKLGMAVLLITHDLSIVRRYADYVVVMERGKMVEQGATETLFRSPSHTYTRKLIDAEPPEHPLPAANGTETLMTVDNVNVHFPIRKTMLGKVKESFHAVQDASFELRAGETLGIVGESGSGKTTLGHALLKLTPSTGTFSLCGTELSALSQKAFRPWRRRVQIVFQDPFGSLSPRMSVEEIIREGLEIHEPGSSGQHEARVIQALKDVGLDPDARHRYPHEFSGGQRQRIAIARALVLQPDLMILDEPTSALDRTVQKQVIELLREIQARYRLSYIFISHDLAVVRALSHKLLVLRQGRIVEYGDAETIFREPQQPYTRELLNAAFFYQSTTN	not soluble
MLEVIATCLEDVKRIESAGGKRIELISSYTEGGLTPSYAFIKKAVEVVSIPIHVMIRPHAKSFTYTEEEIEMMKEDIIVAQKLGAAGVVLGVLNERNEVDEEKLADLLSVVDGINVTYHRAIDDIKNPVEAMSTLKKFHKVTHVLTSGGQGNIVENIPVLTEMQKVSEGQIQLVAGAGVTKENIKRLLDETGITQAHVGTAVREGKSCFSEIDPNLVQELVEIIKLEHHHHHH	soluble
MSLTIKVFSPKYPTELEEFYAERIADNPLGFIQRLDLLPSISGFVQKLREHGGEFFEMREGNKLIGICGLNPINQTEAELCKFHINSAYQSQGLGQKLYESVEKYAFIKGYTKISLHVSKSQIKACNLYQKLGFVHIKEEDCVVELGEETLIFPTLFMEKILSEGHHHHHH	soluble
MAEVLMYGLSTCPHCKRTLEFLKREGVDFEVIWIDKLEGEERKKVIEKVHSISGSYSVPVVVKGDKHVLGYNEEKLKELIRG	soluble
MMKMIIAIVQDQDSQELADQLVKNNFRATKLATTGGFLRAGNTTFLCGVNDDRVDEILSVINQTCGNREQLVSPITPMGGSADSYIPYPVEVEVGGATVFVMPVDAFHQFLEHHHHHH	soluble
MGGIFSKKEKSPKSAPVSDQDNAILALKTQRDKMKQMIKRKENCLEKERQLAKQLIKDGRKDRALLLLKKKRYQEKIIDQTLNHLSKIEQMVNDLEFAEVQQRVTDGLRQGNEALKKMNQLFDIDEIDRIMEETKEAAEYQEEISNMLSGQLSNTDVSDVEKELEDLLAAEWGTVQLPEAPSHELPEAERERQKEKEKPRREKIALEA	not soluble

Reference: the DeepSol protein solubility set
